Laboratory results taken from paper PMC4575908.

System: O=C(O)[C@H]1O[C@@H](Oc2ccc([N+](=O)[O-])cc2)[C@H](O)[C@@H](O)[C@@H]1O
Test: purified protein, by the assay type
Conditions: 37.0 °C

CpGUS (Clostridium perfringens str. 13)
Km: 1100 ± 200 µM
kcat: 2.6 ± 0.6 s⁻¹
kcat/Km: 2400 M⁻¹ s⁻¹

BfGUS (Bacteroides fragilis NCTC 9343)
Km: 1900 ± 300 µM
kcat: 18 ± 1 s⁻¹
kcat/Km: 9500 M⁻¹ s⁻¹
